Reference: paper PMC3145977, “Thermostabilisation of an Agonist-Bound Conformation of the Human Adenosine A2A Receptor” (Journal of Molecular Biology, 2011)
Residue numbers refer to the chain shown, from its start. Names may count otherwise.

B1: GL10: A2AR mutant L48A-Q89A (protein, UniProt P29274 1-412, looked up, variant L48A Q89A)
Adenosine receptor A2a: MPIMGSSVYITVELAIAVLAILGNVLVCWAVWLNSNLQNVTNYFVVSAAAADIAVGVLAIPFAITISTGFCAACHGCLFIACFVLVLTASSIFSLLAIAIDRYIAIRIPLRYNGLVTGTRAKGIIAICWVLSFAIGLTPMLGWNNCGQPKEGKNHSQGCGEGQVACLFEDVVPMNYMVYFNFFACVLVPLLLMLGVYLRIFLAARRQLKQMESQPLPGERARSTLQKEVHAAKSLAIIVGLFALCWLPLHIINCFTFFCPDCSHAPLWLMYLAIVLSHTNSVVNPFIYAYRIREFRQTFRKIIRSHVLRQQEPFKAAGTSARVLAAHGSDGEQVSLRLNGHPPGVWANGSAPHPERRPNGYALGLVSGGSAQESQGNTGLPDVELLSHELKGVCPEPPGLDDPLAQDGAGVS
B2: GL14: A2AR mutant L48A-A236L (protein, UniProt P29274 1-412, looked up, variant L48A A236L)
Adenosine receptor A2a: B1 Adenosine receptor A2a with A89Q, A236L
B3: GL7: A2AR mutant L48A-T65A (protein, UniProt P29274 1-412, looked up, variant L48A T65A)
Adenosine receptor A2a: B1 Adenosine receptor A2a with T65A, A89Q
B4: GL26: A2AR mutant L48A-Q89A-T65A-A54L (protein, UniProt P29274 1-412, looked up, variant L48A Q89A T65A A54L)
Adenosine receptor A2a: B1 Adenosine receptor A2a with A54L, T65A
B5: GL19: A2AR mutant L48A-V282A (protein, UniProt P29274 1-412, looked up, variant L48A V282A)
Adenosine receptor A2a: B1 Adenosine receptor A2a with A89Q, V282A
B6: GL5: A2AR mutant L48A-V57A (protein, UniProt P29274 1-412, looked up, variant L48A V57A)
Adenosine receptor A2a: B1 Adenosine receptor A2a with V57A, A89Q
B7: GL24: A2AR mutant L48A-Q89A-F79A (protein, UniProt P29274 1-412, looked up, variant L48A Q89A F79A)
Adenosine receptor A2a: B1 Adenosine receptor A2a with F79A
B8: GL11: A2AR mutant L48A-S90A (protein, UniProt P29274 1-412, looked up, variant L48A S90A)
Adenosine receptor A2a: B1 Adenosine receptor A2a with A89Q, S90A
B9: GL15: A2AR mutant L48A-I238A (protein, UniProt P29274 1-412, looked up, variant L48A I238A)
Adenosine receptor A2a: B1 Adenosine receptor A2a with A89Q, I238A
B10: GL6: A2AR mutant L48A-F62A (protein, UniProt P29274 1-412, looked up, variant L48A F62A)
Adenosine receptor A2a: B1 Adenosine receptor A2a with F62A, A89Q
B11: GL21: A2AR mutant L48A-Q89A-A54L (protein, UniProt P29274 1-412, looked up, variant L48A Q89A A54L)
Adenosine receptor A2a: B1 Adenosine receptor A2a with A54L
B12: GL20: A2AR mutant L48A-Q89A-V12A (protein, UniProt P29274 1-412, looked up, variant L48A Q89A V12A)
Adenosine receptor A2a: B1 Adenosine receptor A2a with V12A
B13: GL22: A2AR mutant L48A-Q89A-F62A (protein, UniProt P29274 1-412, looked up, variant L48A Q89A F62A)
Adenosine receptor A2a: B1 Adenosine receptor A2a with F62A
B14: GL27: A2AR mutant L48A-Q89A-T65A-F83A (protein, UniProt P29274 1-412, looked up, variant L48A Q89A T65A F83A)
Adenosine receptor A2a: B1 Adenosine receptor A2a with T65A, F83A
B15: GL9: A2AR mutant L48A-F83A (protein, UniProt P29274 1-412, looked up, variant L48A F83A)
Adenosine receptor A2a: B1 Adenosine receptor A2a with F83A, A89Q
B16: GL17: A2AR mutant L48A-F242A (protein, UniProt P29274 1-412, looked up, variant L48A F242A)
Adenosine receptor A2a: B1 Adenosine receptor A2a with A89Q, F242A
B17: GL25: A2AR mutant L48A-Q89A-T65A-A50L (protein, UniProt P29274 1-412, looked up, variant L48A Q89A T65A A50L)
Adenosine receptor A2a: B1 Adenosine receptor A2a with A50L, T65A
B18: GL1: A2AR mutant L48A-V12A (protein, UniProt P29274 1-412, looked up, variant L48A V12A)
Adenosine receptor A2a: B1 Adenosine receptor A2a with V12A, A89Q
B19: GL8: A2AR mutant L48A-F79A (protein, UniProt P29274 1-412, looked up, variant L48A F79A)
Adenosine receptor A2a: B1 Adenosine receptor A2a with F79A, A89Q
B20: GL4: A2AR mutant L48A-A54L (protein, UniProt P29274 1-412, looked up, variant L48A A54L)
Adenosine receptor A2a: B1 Adenosine receptor A2a with A54L, A89Q
B21: GL29: A2AR mutant L48A-Q89A-T65A- S263A (protein, UniProt P29274 1-412, looked up, variant L48A Q89A T65A S263A)
Adenosine receptor A2a: B1 Adenosine receptor A2a with T65A, S263A
B22: S90A: A2AR point mutant S90A (protein, UniProt P29274 1-412, looked up, variant S90A)
Adenosine receptor A2a: B1 Adenosine receptor A2a with A48L, A89Q, S90A
B23: A236L: A2AR point mutant A236L (protein, UniProt P29274 1-412, looked up, variant A236L)
Adenosine receptor A2a: B1 Adenosine receptor A2a with A48L, A89Q, A236L
B24: A54L: A2AR point mutant A54L (protein, UniProt P29274 1-412, looked up, variant A54L)
Adenosine receptor A2a: B1 Adenosine receptor A2a with A48L, A54L, A89Q
B25: T65A: A2AR point mutant T65A (protein, UniProt P29274 1-412, looked up, variant T65A)
Adenosine receptor A2a: B1 Adenosine receptor A2a with A48L, T65A, A89Q
B26: Q89A: A2AR point mutant Q89A (protein, UniProt P29274 1-412, looked up, variant Q89A)
Adenosine receptor A2a: B1 Adenosine receptor A2a with A48L
B27: V57A: A2AR point mutant V57A (protein, UniProt P29274 1-412, looked up, variant V57A)
Adenosine receptor A2a: B1 Adenosine receptor A2a with A48L, V57A, A89Q
B28: I238A: A2AR point mutant I238A (protein, UniProt P29274 1-412, looked up, variant I238A)
Adenosine receptor A2a: B1 Adenosine receptor A2a with A48L, A89Q, I238A
B29: F83A: A2AR point mutant F83A (protein, UniProt P29274 1-412, looked up, variant F83A)
Adenosine receptor A2a: B1 Adenosine receptor A2a with A48L, F83A, A89Q
B30: F242A: A2AR point mutant F242A (protein, UniProt P29274 1-412, looked up, variant F242A)
Adenosine receptor A2a: B1 Adenosine receptor A2a with A48L, A89Q, F242A
B31: F79A: A2AR point mutant F79A (protein, UniProt P29274 1-412, looked up, variant F79A)
Adenosine receptor A2a: B1 Adenosine receptor A2a with A48L, F79A, A89Q
B32: F62A: A2AR point mutant F62A (protein, UniProt P29274 1-412, looked up, variant F62A)
Adenosine receptor A2a: B1 Adenosine receptor A2a with A48L, F62A, A89Q

Each molecule was assayed on [^3H]NECA-bound A2AR (assay: Thermostability assay of detergent-solubilised receptor with [3H]NECA bound (ligand plus format)). Conditions: not given.
Assay type: physicochemical, human
Experimental: […]. After solubilisation in DDM, A2AR was bound to Ni^2+-NTA resin, washed to reduce the DDM concentration and then eluted (see Methods). […]. An aliquot of E. coli cells (14 mL) was thawed on ice and resupended in 500 μL of buffer A [50 mM Tris–HCl (pH 7.4), 0.4 M NaCl, 250 μg/mL lysozyme (Sigma) and 1 mg/mL DNase I (Sigma), supplemented with complete ethylenediaminetetraacetic acid (EDTA)-free Protease inhibitor cocktail (Roche)] and incubated for 1 h at 4 °C. Samples were then sonicated for 1 min at 4 °C using a cup-horn sonicator. The receptors were solubilised by adding 1% DDM and incubated for 1 h at 4 °C. Insoluble material was removed by centrifugation (5 min, 13,000g, 4 °C). The solubilised receptors were partially purified with Ni-NTA agarose (Qiagen). Agarose beads (300 μL) pre-equilibrated in buffer A were added to 700 μL of solubilised receptor. […].
(§1) The sample was incubated for 45 min at 4 °C, then 30 min at the specified temperature and then 30 min at 4 °C. Receptor-bound and free radioligands were separated as previously described on mini gel-filtration columns.[26] Receptor-bound ligands were transferred to a 96-well plate (PerkinElmer) and mixed with 200 μL of Optiphase supermix (PerkinElmer). The bound ^3H-labeled ligand was determined using a 1450 Microbeta Trilux counter (1 min per sample).
For all the thermostabilisation studies carried out in our laboratory, the apparent Tm is the temperature for which 50% of the solubilised receptor remains folded after 30 min of incubation. The rate constant of the protein denaturation is a function of the temperature, and consequently, thermal denaturation of a protein can be compared to a chemical reaction for which the rate of the reaction is dependant on the temperature. Arrhenius established that any chemical reaction is temperature dependant. […]. The reference measurement representing the total binding activity of the sample A0 was considered to be measured at 4 °C. From the graphical representation t = Log10(t1/2) (Fig. 2c), we could extract a half-life for each construct at any temperature to define the improvement in stability of the various mutants compared to WT A2AR.

Row | Molecule | Apparent Tm in DDM, Single measurement | Apparent Tm in DM, Single measurement
1 | B1 | 47.5 °C | –
2 | B2 | 40.5 °C | –
3 | B3 | 45 °C | –
4 | B4 | – | 46 °C
5 | B5 | 40 °C | –
6 | B6 | 41.5 °C | –
7 | B7 | 46 °C | –
8 | B8 | 46 °C | –
9 | B9 | 42.5 °C | –
10 | B10 | 45 °C | –
11 | B11 | 46 °C | –
12 | B12 | 46 °C | –
13 | B13 | 45.5 °C | –
14 | B14 | – | 44 °C
15 | B15 | 43.5 °C | –
16 | B16 | 39.5 °C | –
17 | B17 | – | 44.5 °C
18 | B18 | 45.5 °C | –
19 | B19 | 45.5 °C | –
20 | B20 | 46 °C | –
21 | B21 | – | 44.5 °C

Same assay, conditions: DM

Row | Molecule | Increase in stability versus WT receptor in DM
22 | B4 | 21.5 °C

Same assay, conditions: [3H]NECA bound; DDM; from Fig. 2c

Row | Molecule | Improvement in stability compared to WT based on t1/2 (decrease in rate of unfolding)
23 | B1 | 136 fold

These molecules were tested on [^3H]ZM241385-bound A2AR (assay: Thermostability assay of detergent-solubilised receptor with [3H]ZM241385 bound). Conditions: not given.
Assay type: physicochemical, human
Experimental: An aliquot of E. coli cells (14 mL) was thawed on ice and resupended in 500 μL of buffer A [50 mM Tris–HCl (pH 7.4), 0.4 M NaCl, 250 μg/mL lysozyme (Sigma) and 1 mg/mL DNase I (Sigma), supplemented with complete ethylenediaminetetraacetic acid (EDTA)-free Protease inhibitor cocktail (Roche)] and incubated for 1 h at 4 °C. Samples were then sonicated for 1 min at 4 °C using a cup-horn sonicator. The receptors were solubilised by adding 1% DDM and incubated for 1 h at 4 °C. Insoluble material was removed by centrifugation (5 min, 13,000g, 4 °C). The solubilised receptors were partially purified with Ni-NTA agarose (Qiagen). Agarose beads (300 μL) pre-equilibrated in buffer A were added to 700 μL of solubilised receptor. […].
as §1

Row | Molecule | Apparent Tm, Antagonist [^3H]ZM241385 | ΔTm, Antagonist [^3H]ZM241385
24 | B22 | 32 °C | 0 °C
25 | B23 | 38 °C | + 6 °C
26 | B24 | 38 °C | + 6 °C
27 | B25 | 38 °C | + 6 °C
28 | B26 | 26 °C | − 8 °C
29 | B27 | 38 °C | + 6 °C
30 | B28 | 36 °C | + 4 °C
31 | B29 | 16.5 °C | − 15.5 °C

Same assay, conditions: at 4 °C; 100 nM radioligand

Row | Binding of [^3H]ZM241385 | Molecule
32 | did not bind | B30
33 | did not bind | B31
34 | did not bind | B32
